From paper PMC3767657 come the findings set out here.

As a reminder, the stoichiometry N is the number of molecules, sites or subunits per partner or assembly.

Experiment [1] has as its target HIV-1 integrase (IN) T174I, in virus particles (HIV-1 (NL4.3-based vector)). Description: cross-linking; purified virus (50 ng p24 equivalents) in PBS/0.25% Triton X-100 treated with BS3 for 20 min at room temperature, quenched with Tris-HCl pH 7.5, reducing SDS-PAGE, anti-IN Western blot; virus produced in the presence of DMSO or 1 uM GS-B, or cell-free virus treated with GS-B. For orientation: In western blotting, separated proteins are transferred to a membrane and probed.

The target in experiment [2] is HIV-1 integrase (IN), wild type, in virus particles (HIV-1 (NL4.3-based vector)). The description is as above.

In the case of “HIV-1 integrase (IN) T174I, in virus particles (enzyme)”, the stoichiometry N in experiment [1] amounted to 2.

Regarding “HIV-1 integrase (IN), wild type, in virus particles (enzyme)”, the stoichiometry N in experiment [2] came out at 2.
